Residue numbers refer to the chain shown, from its start. In names and notes the source's numbering stands.
B1: KAZ-Q11R: KAZ with single amino acid substitution Q11R (protein)
chain: FTLADFVGDWRQTAGYNQDQVLEQGGLSSLFQALGVSVTPIQKVVLSGENGLKADIHVIIPYEGLSGFQMGLIEMIFKVVYPVDDHHFKIILHYGTLVIDGVTPNMIDYFGRPYPGIAVFDGKQITVTGTLWNGNKIYDERLINPDGSLLFRVTINGVTGWRLCENILA
B2: KAZ-Q18L: KAZ with glutamine at position 18 substituted by leucine (protein, listed as Oplophorus gracilirostris)
chain: B1 chain with R11Q, Q18L
B3: KAZ-K43R: KAZ with single amino acid substitution K43R (protein)
chain: B1 chain with R11Q, K43R
B4: KAZ-L27V: KAZ with single amino acid substitution L27V (protein)
chain: B1 chain with R11Q, L27V
B5: KAZ-M75K: KAZ with single amino acid substitution M75K (protein)
chain: B1 chain with R11Q, M75K
B6: KAZ-L72Q: KAZ with single amino acid substitution L72Q (protein)
chain: B1 chain with R11Q, L72Q
B7: KAZ-A33N: KAZ with single amino acid substitution A33N (protein)
chain: B1 chain with R11Q, A33N
B8: KAZ-F68D: KAZ with single amino acid substitution F68D (protein)
chain: B1 chain with R11Q, F68D

System: not listed separately
Assay: Luminescence activity of ZZ-fused KAZ mutants in crude enzyme solutions
Assay type: biochemical
Settings: Table 4; ZZ-fused (pCold-ZZ-P-); 1 μL crude enzyme solution, 1 mM DTT; 1 μg coelenterazine
Description: To express the ZZ-fused KAZ mutants in E. coli, the recombinant plasmid prepared in EXAMPLE 6 was used. Crude enzyme solutions were prepared in the same manner as EXAMPLE 4 using the E. coli BL21 strain (Novagen, Madison, Wis.) as a host cell. The resultant crude enzyme solution, 5 μL, was subjected to SDS-PAGE analysis to confirm expression of the proteins (FIG. 2). In FIG. 2, M and 1 to 18 are the same as described in FIG. 1.
DTT was added to the crude enzyme solution obtained in EXAMPLE 7 at a final concentration of 1 mM and the mixture was allowed to stand in an ice water for more than 5 hours. A luminescence reaction was started by adding 1 μL of the crude enzyme solution to 100 μL of TE containing 1 μg of coelenterazine (manufactured by JNC Corp.). The luminescence activity was determined using a luminometer (manufactured by Atto Inc.: AB2200) for 60 seconds, and the maximum intensity of luminescence (Imax) was shown as relative luminescence activity.
To express the ZZ-fused KAZ mutants in E. coli, the recombinant plasmid constructed in EXAMPLE 16 and pCold-ZZ-P-V44I-KAZ, pCold-ZZ-P-A54I-KAZ, pCold-ZZ-P-Y138I-KAZ prepared in EXAMPLE 6 were used. Crude enzyme solutions were prepared in the same manner as EXAMPLE 7, using the E. coli BL21 strain (Novagen, Madison, Wis.) as a host cell. DTT was added to the crude enzyme solutions at a final concentration of 1 mM. The mixtures were allowed to stand over 5 hours on ice, and luminescence activities were then assayed. The luminescence activities were determined by the method described in EXAMPLE 8. Also, 5 μL of the resultant crude enzyme solutions were subjected to SDS-PAGE analysis to confirm protein expression (FIG. 4). In FIG. 4, M and 1 to 9 are as follows. M: molecular weight size markers; 1: ZZ-P-KAZ; 2: ZZ-P-KAZ-V44I; 3: ZZ-P-KAZ-A54I; 4: ZZ-P-KAZ-Y138I; 5: ZZ-P-KAZ-V44I-A54I; 6: ZZ-P-KAZ-V44I-Y138I; 7: ZZ-P-KAZ-A54I-Y138I; 8: ZZ-P-KAZ-V44I-A54I-Y138I; and 9: ZZ-P-dnKAZ.

Molecule	Relative Luminescence Activity (Imax)
B1	1.8
B2	0.3
B3	0.6
B4	0.1
B5	1.3
B6	2.5
B7	1.0
B8	2.7

System: not listed separately
Assay: Luminescence activity of KAZ mutants (pCold II, E. coli) in supernatant and precipitate of crude enzyme solution
Assay type: biochemical
Settings: Table 3; pCold II, E. coli BL21; 5 μL precipitate; 0.5 μg coelenterazine; 60 seconds
Description: In order to express the KAZ mutants in E. coli, the recombinant plasmid prepared in EXAMPLE 3 was used. The E. coli BL21 strain (Novagen, Madison, Wis.) was used as a host cell. The BL21 strain carrying the recombinant plasmid was incubated in 5 mL of Luria-Bertani medium (hereinafter designated as LB medium) containing ampicillin (50 μg/mL) at 37° C. for 18 hours. This seed culture, 0.1 mL, was inoculated to 10 mL of LB medium and incubated for 3 hours, followed by cooling in an ice-water bath for 1 hour. IPTG was added to the culture medium at a final concentration of 1 mM, followed by incubation at 15° C. for further 20 hours. After completion of the incubation, 1 mL of the cultured medium was harvested by centrifugation at 10,000 rpm for 2 minutes. The thus collected E. coli cells were suspended in 0.5 mL of 30 mM Tris-HCl (pH 7.6)-10 mM EDTA (manufactured by Wako Pure Chemical Industries, Ltd.) (hereinafter designated as TE). The E. coli cells were disrupted by sonication for 3 seconds using a Branson Model 250 Sonifier (Danbury, Conn.) to give a crude enzyme solution. After 0.5 mL of the crude enzyme solution was further centrifuged at 10,000 rpm for 2 minutes to separate the supernatant from the precipitate, the precipitate was suspended in 0.5 mL of TE. Then 20 μL each of the supernatant and precipitate were analyzed by SDS-PAGE to confirm the presence or absence of soluble and insoluble proteins. The results are shown in FIG. 1, wherein M and 1 to 17 denote: M: molecular weight size markers; 1: KAZ; 2 KAZ-A4E; 3: KAZ-Q11R; 4: KAZ-Q18L; 5: KAZ-L27V; 6: KAZ-A33N; 7: KAZ-K43R; 8: KAZ-V44I; 9: KAZ-A54I; 10: KAZ-F68D; 11: KAZ-L72Q; 12: KAZ-M75K; 13: KAZ-I90V; 14: KAZ-P115E; 15: KAZ-Q124K; 16: KAZ-Y138I; 17: KAZ-N166R and 18: dnKAZ.
A luminescence reaction was started by the addition of 5 μL each of the supernatant and precipitate obtained in EXAMPLE 4 to 100 μL of TE containing 0.5 μg of coelenterazine (manufactured by JNC Corp.). The luminescence activity was measured for 60 seconds using a luminometer (manufactured by Atto Corp.: AB2200) and expressed in terms of relative luminescence activity (Imax).
To express the KAZ mutants with two amino acid substitutions and three amino acid substitutions in E. coli using a pCold II vector, the recombinant plasmid constructed in EXAMPLE 13 and pCold-V44I-KAZ, pCold-A54I-KAZ, pCold-Y138I-KAZ prepared in EXAMPLE 3 were used. The supernatant and precipitate of each crude enzyme solution were prepared in the same manner as EXAMPLE 4, using the E. coli BL21 starin (Novagen, Madison, Wis.) as a host cell. The supernatant and precipitate, 20 μL each, were subjected to SDS-PAGE analysis to confirm the presence or absence of soluble proteins and insoluble proteins. In FIG. 3, M and 1 to 9 are as follows. M: molecular weight markers; 1: dnKAZ; 2: KAZ; 3: KAZ-V44I-A54I; 4: KAZ-V44I-Y138I; 5: KAZ-A54I-Y138I; 6: KAZ-V44I-A54I-Y138I; 7: KAZ-V44I; 8: KAZ-A54I; and 9: KAZ-Y138I.
The luminescence activities of 5 μL each of the supernatant and precipitate obtained in EXAMPLE 14 were determined in the same manner as EXAMPLE 5. The luminescence activity was assayed with a luminometer (manufactured by Atto Inc.: AB2200) for 60 seconds, and the maximum intensity of luminescence (Imax) was shown as relative luminescence activity.

Molecule	Relative Luminescence Activity (Imax) Precipitate
B1	0.3
B2	0.2
B3	0.2
B4	0.1
B5	0.4
B6	0.6
B7	0.4
B8	0.2

Same assay, conditions: Table 3; pCold II, E. coli BL21; 5 μL supernatant; 0.5 μg coelenterazine; 60 seconds

Molecule	Relative Luminescence Activity (Imax) Supernatant
B1	2.0
B2	1.0
B3	1.8
B4	0.1
B5	4.6
B6	7.2
B7	1.0
B8	5.4

System: CHO-K1 cells
Assay: Luminescence activity of KAZ mutants expressed in animal culture cells with signal peptide of Gaussia luciferase for secretion
Assay type: cell-based, Chinese hamster
Settings: Table 5; pcDNA3-GLsp- vectors; CHO-K1, 48 hours; 5 μL cell extracts; 0.5 μg coelenterazine
Description: Chinese hamster ovary cell line CHO-K1 was cultured in Ham's F-12 medium (manufactured by Wako Pure Chemical Industries, Ltd.) supplemented with 10% (v/v) fetal bovine serum (manufactured by Biowest Inc.). The CHO-K1 cells were plated in a 6-well plate in 1×10^5 cells/well/2 mL medium (n=2) and cultured in an incubator at 37° C. in 5% (v/v) CO2. After 24 hours, the purified recombinant plasmid was transfected to CHO-K1 cells using a FuGene HD transfection kit (manufactured by Promega Corp.), which was provided for subsequent experiment. Specifically, 1 μg of the recombinant plasmid pGL4.13 [Luc2/sv40], 0.1 μg of the internal standard vector and 3 μL of FuGene HD were added to 100 μL of the medium, which was allowed to stand at room temperature for 15 minutes. Subsequently, 100 μL of the DNA-FuGene complex was added to the cells in the 6 wells. After incubation for 48 hours, the culture medium was collected. On the other hand, the KAZ mutants expressed in the cells were washed 3 times with 3 mL of 1×PBS, then suspended in 1 mL of 1×PBS and disrupted on ice by ultrasonication, which was used as enzyme solutions of the cell-extracts of KAZ mutants.
A luminescence reaction was started by adding 5 μL of the culture media and cell extracts obtained in EXAMPLE 10 to 100 μL of 30 mM Tris-HCl (pH 7.6)-10 mM EDTA (manufactured by Wako Pure Chemical Industries, Ltd.) containing 0.5 μg of coelenterazine (manufactured by INC Corp.). The luminescence activity was determined using a luminometer (manufactured by Atto Inc.: AB2200) for 60 seconds, and the maximum intensity of luminescence (Imax) was defined as a percentage.
Culture media of the KAZ mutants with two amino acid substitutions and KAZ mutants with three amino acid substitutions and the enzyme solutions of the cell-extracts of KAZ mutants were prepared in the same manner as EXAMPLE 10.
In the resultant enzyme solutions and the enzyme solutions of the cell-extracts of KAZ mutants, luminescence activities were determined in the same manner as EXAMPLE 11.

Molecule	Relative Luminescence Activity (Imax) (%) Cell Extracts [%]
B1	0.1
B2	0.02
B3	0.1
B4	0.02
B5	0.2
B6	0.4
B7	0.1
B8	0.3

Same assay, conditions: Table 5; pcDNA3-GLsp- vectors; CHO-K1, 48 hours; 5 μL culture medium; 0.5 μg coelenterazine

Molecule	Relative Luminescence Activity (Imax) (%) Culture Medium
B1	less than 0.01%
B2	less than 0.01%
B3	less than 0.01%
B4	less than 0.01%
B5	less than 0.01%
B6	less than 0.01%
B7	less than 0.01%
B8	less than 0.01%
